Laboratory results published in US7410775B2, “Method for making recombinant peptides or proteins using soluble endoproteases” (Bio-Ker S.R.L., priority 2000, dated 2008).
Residues, ends and D or L forms follow the SMILES beside them. *: point of attachment. pNA = O=[N+]([O-])c1ccc(N*)cc1; Cbz = O=C(OCc1ccccc1)*

Tests used:
[1] = biological target: T1, Kluyveromyces lactis Kex1 protease, soluble secreted variant ss-Kex1-C600 (truncated at amino acid 600; parent Kex1 SEQ ID NO: 3) (Kluyveromyces lactis, UniProt P09231); assay: Kinetic constants of ss-Kex1-C600 (single initial substrate concentration, progress curve, Michaelis-Menten fit); format: biochemical
T1 sequence (P09231 103-600): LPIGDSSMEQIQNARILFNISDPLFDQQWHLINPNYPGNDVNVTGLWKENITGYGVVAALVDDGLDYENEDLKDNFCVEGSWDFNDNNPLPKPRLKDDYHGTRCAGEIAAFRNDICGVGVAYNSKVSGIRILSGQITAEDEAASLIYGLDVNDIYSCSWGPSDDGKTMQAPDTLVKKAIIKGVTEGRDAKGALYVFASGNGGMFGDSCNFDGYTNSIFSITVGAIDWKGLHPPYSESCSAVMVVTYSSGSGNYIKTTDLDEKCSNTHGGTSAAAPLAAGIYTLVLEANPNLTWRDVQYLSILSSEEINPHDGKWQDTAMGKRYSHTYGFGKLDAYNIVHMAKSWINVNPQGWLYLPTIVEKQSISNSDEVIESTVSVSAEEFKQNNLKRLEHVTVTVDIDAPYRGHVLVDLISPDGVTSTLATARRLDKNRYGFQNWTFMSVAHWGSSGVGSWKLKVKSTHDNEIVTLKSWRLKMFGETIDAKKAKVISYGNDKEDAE
Experimental: (§1) The enzyme activity was determined by a calorimetric test which exploits the capacity of the enzyme to hydrolyse the substrate Z-L-tyrosine-L-lysine-L-arginine-p-nitroanilide (Z-Y-K-R-pNA). The incubation mixture comprises 0.1 mM Z-Y-K-R-pNA in 0.2 M Hepes, pH 7.0 and 1 mM CaCl2, in a total volume of 1.5 ml at 37° C. The reaction is monitored at 405 nm, a wavelength at which the maximum decrease in the molar extinction coefficient (As), equal to 10.9 mM^−1 cm^−1, occurs. An enzyme unit is defined as being the quantity of enzyme that catalyses the transformation of 1 μmole of substrate per minute under the conditions described above. […]
(§2) The kinetic constants were determined by a simplified procedure which requires that measurements be carried out at a single initial concentration of substrate and until the substrate is exhausted. The method provides that, at various times, the average values of residual concentration and rate be determined and is applicable in those cases in which the enzyme catalyses an entirely irreversible reaction under the operating conditions, and is not subject to inhibition by product (Segel, I. H. (1975) Enzyme Kinetics, Wiley, New York). […]

[2] = biological target: T2, Saccharomyces cerevisiae Kex2 protease, soluble secreted form ss-Kex2-C613 (parent Kex2 SEQ ID NO: 4) (Saccharomyces cerevisiae, UniProt P13134); assay: Kinetic constants of ss-Kex2-C613 (single initial substrate concentration, progress curve, Michaelis-Menten fit); format: biochemical
T2 construct: pro-region cut at Lys108-Arg109; from yeast
T2 sequence (P13134 1-613): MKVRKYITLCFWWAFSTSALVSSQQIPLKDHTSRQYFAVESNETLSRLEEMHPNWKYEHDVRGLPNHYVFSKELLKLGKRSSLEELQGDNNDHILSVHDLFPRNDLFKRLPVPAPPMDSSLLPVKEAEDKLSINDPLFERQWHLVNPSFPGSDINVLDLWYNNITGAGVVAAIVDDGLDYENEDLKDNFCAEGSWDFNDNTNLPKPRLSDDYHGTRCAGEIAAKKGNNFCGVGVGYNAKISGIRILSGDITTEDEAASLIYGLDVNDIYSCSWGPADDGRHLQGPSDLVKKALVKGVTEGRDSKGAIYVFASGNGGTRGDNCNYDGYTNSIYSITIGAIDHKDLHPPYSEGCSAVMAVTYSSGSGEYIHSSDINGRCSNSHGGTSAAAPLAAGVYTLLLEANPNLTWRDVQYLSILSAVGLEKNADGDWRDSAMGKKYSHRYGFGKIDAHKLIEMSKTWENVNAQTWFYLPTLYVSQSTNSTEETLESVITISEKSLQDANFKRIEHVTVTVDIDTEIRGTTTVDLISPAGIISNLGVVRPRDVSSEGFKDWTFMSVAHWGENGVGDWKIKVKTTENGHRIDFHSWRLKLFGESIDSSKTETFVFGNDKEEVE
Experimental: as §1, §2

[3] = substrate: N=C(N)NCCC[C@H](NC(=O)[C@H](CCCCN)NC(=O)[C@H](Cc1ccc(O)cc1)NC(=O)OCc1ccccc1)C(=O)Nc1ccc([N+](=O)[O-])cc1; assay: Kinetic constants of ss-Kex1-C600 (single initial substrate concentration, progress curve, Michaelis-Menten fit); format: biochemical, Kluyveromyces lactis; details: other: ss-Kex1-C600; pH 7.0
Experimental: The enzyme activity was determined by a calorimetric test which exploits the capacity of the enzyme to hydrolyse the substrate Z-L-tyrosine-L-lysine-L-arginine-p-nitroanilide (Z-Y-K-R-pNA). The incubation mixture comprises 0.1 mM Z-Y-K-R-pNA in 0.2 M Hepes, pH 7.0 and 1 mM CaCl2, in a total volume of 1.5 ml at 37° C. The reaction is monitored at 405 nm, a wavelength at which the maximum decrease in the molar extinction coefficient (As), equal to 10.9 mM^−1 cm^−1, occurs. An enzyme unit is defined as being the quantity of enzyme that catalyses the transformation of 1 μmole of substrate per minute under the conditions described above. Unless expressly indicated otherwise, the data presented in Table 2 refer to the activity secreted in the growth medium by derivatives of the W303 strain which was grown in a flask at 30° C., with agitation (220 rpm), in 1040 medium-2% galactose (except for strains NP255 and NP265 in which the carbon source added to the growth medium was 2% glucose). Various samples were taken along the growth curve for each strain. […] The invention is therefore not limited by the type of promoter used, as long as the levels of secretion of the endoprotease of the invention are satisfactory.
The kinetic constants were determined by a simplified procedure which requires that measurements be carried out at a single initial concentration of substrate and until the substrate is exhausted. The method provides that, at various times, the average values of residual concentration and rate be determined and is applicable in those cases in which the enzyme catalyses an entirely irreversible reaction under the operating conditions, and is not subject to inhibition by product (Segel, I. H. (1975) Enzyme Kinetics, Wiley, New York). The results so obtained were processed using the Grafit programme, which permitted the interpolation of the Michaelis-Menten profile and the determination of the values of Km and Vmax, presented in Table 3. kcat and the kcat/Km ratio were then obtained from those values and from the enzyme concentration.

[4] = substrate: N=C(N)NCCC[C@H](NC(=O)[C@H](CCCCN)NC(=O)[C@H](Cc1ccc(O)cc1)NC(=O)OCc1ccccc1)C(=O)Nc1ccc([N+](=O)[O-])cc1; assay: Kinetic constants of ss-Kex2-C613 (single initial substrate concentration, progress curve, Michaelis-Menten fit); format: biochemical, Saccharomyces cerevisiae; details: other: ss-Kex2-C613; pH 7.0
Experimental: as §1, §2

Molecule: N=C(N)NCCC[C@H](NC(=O)[C@H](CCCCN)NC(=O)[C@H](Cc1ccc(O)cc1)NC(=O)OCc1ccccc1)C(=O)Nc1ccc([N+](=O)[O-])cc1 [Z-Y-K-R-pNA, Z-L-tyrosine-L-lysine-L-arginine-p-nitroanilide] (Cbz-Tyr-Lys-Arg-pNA)
- Vmax [1]: 1720 (ΔA min^−1) × 10^3
- Vmax [2]: 1029 (ΔA min^−1) × 10^3

B1: Kluyveromyces lactis Kex1 protease, soluble secreted variant ss-Kex1-C600 (truncated at amino acid 600; parent Kex1 SEQ ID NO: 3) (Kluyveromyces lactis NRRL … (protein)
chain: LPIGDSSMEQIQNARILFNISDPLFDQQWHLINPNYPGNDVNVTGLWKENITGYGVVAALVDDGLDYENEDLKDNFCVEGSWDFNDNNPLPKPRLKDDYHGTRCAGEIAAFRNDICGVGVAYNSKVSGIRILSGQITAEDEAASLIYGLDVNDIYSCSWGPSDDGKTMQAPDTLVKKAIIKGVTEGRDAKGALYVFASGNGGMFGDSCNFDGYTNSIFSITVGAIDWKGLHPPYSESCSAVMVVTYSSGSGNYIKTTDLDEKCSNTHGGTSAAAPLAAGIYTLVLEANPNLTWRDVQYLSILSSEEINPHDGKWQDTAMGKRYSHTYGFGKLDAYNIVHMAKSWINVNPQGWLYLPTIVEKQSISNSDEVIESTVSVSAEEFKQNNLKRLEHVTVTVDIDAPYRGHVLVDLISPDGVTSTLATARRLDKNRYGFQNWTFMSVAHWGSSGVGSWKLKVKSTHDNEIVTLKSWRLKMFGETIDAKKAKVISYGNDKEDAE
- Km [3]: 61.4 µM
- kcat [3]: 3070 s⁻¹
- kcat/Km [3]: 5e+07 M⁻¹ s⁻¹

B2: Saccharomyces cerevisiae Kex2 protease, soluble secreted form ss-Kex2-C613 (parent Kex2 SEQ ID NO: 4) (Saccharomyces cerevisiae S288C) (protein)
chain: MKVRKYITLCFWWAFSTSALVSSQQIPLKDHTSRQYFAVESNETLSRLEEMHPNWKYEHDVRGLPNHYVFSKELLKLGKRSSLEELQGDNNDHILSVHDLFPRNDLFKRLPVPAPPMDSSLLPVKEAEDKLSINDPLFERQWHLVNPSFPGSDINVLDLWYNNITGAGVVAAIVDDGLDYENEDLKDNFCAEGSWDFNDNTNLPKPRLSDDYHGTRCAGEIAAKKGNNFCGVGVGYNAKISGIRILSGDITTEDEAASLIYGLDVNDIYSCSWGPADDGRHLQGPSDLVKKALVKGVTEGRDSKGAIYVFASGNGGTRGDNCNYDGYTNSIYSITIGAIDHKDLHPPYSEGCSAVMAVTYSSGSGEYIHSSDINGRCSNSHGGTSAAAPLAAGVYTLLLEANPNLTWRDVQYLSILSAVGLEKNADGDWRDSAMGKKYSHRYGFGKIDAHKLIEMSKTWENVNAQTWFYLPTLYVSQSTNSTEETLESVITISEKSLQDANFKRIEHVTVTVDIDTEIRGTTTVDLISPAGIISNLGVVRPRDVSSEGFKDWTFMSVAHWGENGVGDWKIKVKTTENGHRIDFHSWRLKLFGESIDSSKTETFVFGNDKEEVE
notes: pro-region cut at Lys108-Arg109; from yeast
- Km [4]: 56.8 µM
